Consider seven molecules from article PMC3176292, “Mutations in Protein-Binding Hot-Spots on the Hub Protein Smad3 Differentially Affect Its Protein Interactions and Smad3-Regulated Gene Expression” (PLoS ONE, 2011).

Common to all, as to assay: co-IP; LUMIER: Renilla luciferase-Smad3 and Flag-tagged partner co-expressed with constitutively active Alk5 in HEK-293; Flag protein captured from cleared lysate (TNE: 10 mM Tris-HCl pH 7.8, 150 mM NaCl, 1 mM EDTA, 1% Igepal CA-630) on anti-Flag 96-well plates, 2 h at 4 °C; co-precipitated Renilla luciferase activity, TrxGA background subtracted, percent of wild-type Smad3
Details in all cases: partners not purified

Test [1] deals with T1, Ski Smad-binding domain (amino acids 2–56) on the 3xFlag-thioredoxin scaffold (UniProt P12755 2-56).
T1 construct: Ski, amino acids 2–56; cloned into the unique RsrII site of pCI-3xFLAG-Trx; also called Ski aa2–56; TrxSki; source: HEK-293, transfected, in lysate
T1 sequence (looked up): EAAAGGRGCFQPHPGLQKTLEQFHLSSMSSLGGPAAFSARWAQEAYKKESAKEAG

Test [2] has as its target T2, SARA Smad-binding domain (amino acids 665–721) on the 3xFlag-thioredoxin scaffold (UniProt O95405 767-823).
T2 construct: SARA, amino acids 665–721; cloned into the unique RsrII site of pCI-3xFLAG-Trx; also called SARA aa665–721; TrxSARA; source: HEK-293, transfected, in lysate
T2 sequence (looked up): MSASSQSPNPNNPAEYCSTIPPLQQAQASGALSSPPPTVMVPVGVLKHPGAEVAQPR

For test [3], the target named is T3, Smurf2 Smad-binding domain (amino acids 252–330) on the Flag-thioredoxin scaffold (UniProt Q9HAU4 252-330).
T3 construct: Smurf2, amino acids 252–330; also called Smurf2 aa252–330; TrxSmurf2; source: HEK-293, transfected, in lysate

In test [4] the target is T4, Flag-Smad4, full length (UniProt Q13485 1-552).
T4 construct: Smad4; plasmid pCMV5-Flag-Smad4 (from J. Massagué); also called Smad4 FL; source: HEK-293, transfected, in lysate
T4 sequence (looked up): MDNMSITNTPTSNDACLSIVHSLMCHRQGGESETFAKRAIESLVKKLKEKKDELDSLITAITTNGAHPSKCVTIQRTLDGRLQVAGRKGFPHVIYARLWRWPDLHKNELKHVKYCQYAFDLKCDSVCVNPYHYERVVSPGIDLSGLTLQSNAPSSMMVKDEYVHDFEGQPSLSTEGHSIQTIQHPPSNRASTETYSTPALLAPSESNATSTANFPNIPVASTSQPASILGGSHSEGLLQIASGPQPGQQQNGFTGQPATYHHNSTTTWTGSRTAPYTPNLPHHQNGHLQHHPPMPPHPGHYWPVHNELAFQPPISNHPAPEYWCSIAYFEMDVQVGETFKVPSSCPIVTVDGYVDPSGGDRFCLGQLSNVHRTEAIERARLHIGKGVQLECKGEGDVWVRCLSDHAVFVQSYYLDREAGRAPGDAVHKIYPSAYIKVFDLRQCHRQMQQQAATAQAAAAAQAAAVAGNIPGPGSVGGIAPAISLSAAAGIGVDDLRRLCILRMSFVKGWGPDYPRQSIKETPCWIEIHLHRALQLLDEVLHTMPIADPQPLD

In test [5] the target is T4, Flag-Smad4, full length. This is another data set of the same source.

T3 sequence (Q9HAU4 252-330): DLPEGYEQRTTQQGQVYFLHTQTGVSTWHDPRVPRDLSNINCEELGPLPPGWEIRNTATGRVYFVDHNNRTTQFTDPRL

B1: Renilla luciferase-Smad3 D408H (natural protein, UniProt P84022 1-425, looked up)
chain: MSSILPFTPPIVKRLLGWKKGEQNGQEEKWCEKAVKSLVKKLKKTGQLDELEKAITTQNVNTKCITIPRSLDGRLQVSHRKGLPHVIYCRLWRWPDLHSHHELRAMELCEFAFNMKKDEVCVNPYHYQRVETPVLPPVLVPRHTEIPAEFPPLDDYSHSIPENTNFPAGIEPQSNIPETPPPGYLSEDGETSDHQMNHSMDAGSPNLSPNPMSPAHNNLDLQPVTYCEPAFWCSISYYELNQRVGETFHASQPSMTVDGFTDPSNSERFCLGLLSNVNRNAAVELTRRHIGRGVRLYYIGGEVFAECLSDSAIFVQSPNCNQRYGWHPATVCKIPPGCNLKIFNNQEFAALLAQSVNQGFEAVYQLTRMCTIRMSFVKGWGAEYRRQTVTSTPCWIELHLNGPLQWLHKVLTQMGSPSIRCSSVS
notes: Smad3; source: HEK-293, transfected together with constitutively active Alk5, in lysate
For the molecule B1, the “percent binding relative to wild-type Smad3” value is 3% in test [1], 125% in test [2], 23% in test [3] and 3% in test [4].

B2: Renilla luciferase-Smad3 R268A (natural protein, UniProt P84022 1-425, looked up)
chain: MSSILPFTPPIVKRLLGWKKGEQNGQEEKWCEKAVKSLVKKLKKTGQLDELEKAITTQNVNTKCITIPRSLDGRLQVSHRKGLPHVIYCRLWRWPDLHSHHELRAMELCEFAFNMKKDEVCVNPYHYQRVETPVLPPVLVPRHTEIPAEFPPLDDYSHSIPENTNFPAGIEPQSNIPETPPPGYLSEDGETSDHQMNHSMDAGSPNLSPNPMSPAHNNLDLQPVTYCEPAFWCSISYYELNQRVGETFHASQPSMTVDGFTDPSNSEAFCLGLLSNVNRNAAVELTRRHIGRGVRLYYIGGEVFAECLSDSAIFVQSPNCNQRYGWHPATVCKIPPGCNLKIFNNQEFAALLAQSVNQGFEAVYQLTRMCTIRMSFVKGWGAEYRRQTVTSTPCWIELHLNGPLQWLDKVLTQMGSPSIRCSSVS
notes: as for B1
For the molecule B2, in test [5], the “percent binding relative to wild-type Smad3” value is 18%.

B3: Renilla luciferase-Smad3 Y238A (natural protein, UniProt P84022 1-425, looked up)
chain: MSSILPFTPPIVKRLLGWKKGEQNGQEEKWCEKAVKSLVKKLKKTGQLDELEKAITTQNVNTKCITIPRSLDGRLQVSHRKGLPHVIYCRLWRWPDLHSHHELRAMELCEFAFNMKKDEVCVNPYHYQRVETPVLPPVLVPRHTEIPAEFPPLDDYSHSIPENTNFPAGIEPQSNIPETPPPGYLSEDGETSDHQMNHSMDAGSPNLSPNPMSPAHNNLDLQPVTYCEPAFWCSISYAELNQRVGETFHASQPSMTVDGFTDPSNSERFCLGLLSNVNRNAAVELTRRHIGRGVRLYYIGGEVFAECLSDSAIFVQSPNCNQRYGWHPATVCKIPPGCNLKIFNNQEFAALLAQSVNQGFEAVYQLTRMCTIRMSFVKGWGAEYRRQTVTSTPCWIELHLNGPLQWLDKVLTQMGSPSIRCSSVS
notes: as for B1
On to B3, for which the “percent binding relative to wild-type Smad3” value in test [5] was 27%.

B4: Renilla luciferase-Smad3 R292A (natural protein, UniProt P84022 1-425, looked up)
chain: MSSILPFTPPIVKRLLGWKKGEQNGQEEKWCEKAVKSLVKKLKKTGQLDELEKAITTQNVNTKCITIPRSLDGRLQVSHRKGLPHVIYCRLWRWPDLHSHHELRAMELCEFAFNMKKDEVCVNPYHYQRVETPVLPPVLVPRHTEIPAEFPPLDDYSHSIPENTNFPAGIEPQSNIPETPPPGYLSEDGETSDHQMNHSMDAGSPNLSPNPMSPAHNNLDLQPVTYCEPAFWCSISYYELNQRVGETFHASQPSMTVDGFTDPSNSERFCLGLLSNVNRNAAVELTRRHIGAGVRLYYIGGEVFAECLSDSAIFVQSPNCNQRYGWHPATVCKIPPGCNLKIFNNQEFAALLAQSVNQGFEAVYQLTRMCTIRMSFVKGWGAEYRRQTVTSTPCWIELHLNGPLQWLDKVLTQMGSPSIRCSSVS
notes: as for B1
As to B4, in test [5], the “percent binding relative to wild-type Smad3” value amounted to 49%.

B5: Renilla luciferase-Smad3 Y384A (natural protein, UniProt P84022 1-425, looked up)
chain: MSSILPFTPPIVKRLLGWKKGEQNGQEEKWCEKAVKSLVKKLKKTGQLDELEKAITTQNVNTKCITIPRSLDGRLQVSHRKGLPHVIYCRLWRWPDLHSHHELRAMELCEFAFNMKKDEVCVNPYHYQRVETPVLPPVLVPRHTEIPAEFPPLDDYSHSIPENTNFPAGIEPQSNIPETPPPGYLSEDGETSDHQMNHSMDAGSPNLSPNPMSPAHNNLDLQPVTYCEPAFWCSISYYELNQRVGETFHASQPSMTVDGFTDPSNSERFCLGLLSNVNRNAAVELTRRHIGRGVRLYYIGGEVFAECLSDSAIFVQSPNCNQRYGWHPATVCKIPPGCNLKIFNNQEFAALLAQSVNQGFEAVYQLTRMCTIRMSFVKGWGAEARRQTVTSTPCWIELHLNGPLQWLDKVLTQMGSPSIRCSSVS
notes: as for B1
Regarding B5, the “percent binding relative to wild-type Smad3” value in test [5] is 19%.

B6: Renilla luciferase-Smad3 Y297A (natural protein, UniProt P84022 1-425, looked up)
chain: MSSILPFTPPIVKRLLGWKKGEQNGQEEKWCEKAVKSLVKKLKKTGQLDELEKAITTQNVNTKCITIPRSLDGRLQVSHRKGLPHVIYCRLWRWPDLHSHHELRAMELCEFAFNMKKDEVCVNPYHYQRVETPVLPPVLVPRHTEIPAEFPPLDDYSHSIPENTNFPAGIEPQSNIPETPPPGYLSEDGETSDHQMNHSMDAGSPNLSPNPMSPAHNNLDLQPVTYCEPAFWCSISYYELNQRVGETFHASQPSMTVDGFTDPSNSERFCLGLLSNVNRNAAVELTRRHIGRGVRLAYIGGEVFAECLSDSAIFVQSPNCNQRYGWHPATVCKIPPGCNLKIFNNQEFAALLAQSVNQGFEAVYQLTRMCTIRMSFVKGWGAEYRRQTVTSTPCWIELHLNGPLQWLDKVLTQMGSPSIRCSSVS
notes: as for B1
On to B6, for which the “percent binding relative to wild-type Smad3” value came to 1% in test [1], 8% in test [2], 119% in test [3] and 181% in test [4].

B7: Renilla luciferase-Smad3 R243A (natural protein, UniProt P84022 1-425, looked up)
chain: MSSILPFTPPIVKRLLGWKKGEQNGQEEKWCEKAVKSLVKKLKKTGQLDELEKAITTQNVNTKCITIPRSLDGRLQVSHRKGLPHVIYCRLWRWPDLHSHHELRAMELCEFAFNMKKDEVCVNPYHYQRVETPVLPPVLVPRHTEIPAEFPPLDDYSHSIPENTNFPAGIEPQSNIPETPPPGYLSEDGETSDHQMNHSMDAGSPNLSPNPMSPAHNNLDLQPVTYCEPAFWCSISYYELNQAVGETFHASQPSMTVDGFTDPSNSERFCLGLLSNVNRNAAVELTRRHIGRGVRLYYIGGEVFAECLSDSAIFVQSPNCNQRYGWHPATVCKIPPGCNLKIFNNQEFAALLAQSVNQGFEAVYQLTRMCTIRMSFVKGWGAEYRRQTVTSTPCWIELHLNGPLQWLDKVLTQMGSPSIRCSSVS
notes: as for B1
Turning to B7, the “percent binding relative to wild-type Smad3” value in test [5] was 20%.
